# T1: P. falciparum RH5 (reticulocyte-binding protein homologue 5) (P. falciparum (3D7), UniProt Q8IFM5 25-526)
# T1 sequence: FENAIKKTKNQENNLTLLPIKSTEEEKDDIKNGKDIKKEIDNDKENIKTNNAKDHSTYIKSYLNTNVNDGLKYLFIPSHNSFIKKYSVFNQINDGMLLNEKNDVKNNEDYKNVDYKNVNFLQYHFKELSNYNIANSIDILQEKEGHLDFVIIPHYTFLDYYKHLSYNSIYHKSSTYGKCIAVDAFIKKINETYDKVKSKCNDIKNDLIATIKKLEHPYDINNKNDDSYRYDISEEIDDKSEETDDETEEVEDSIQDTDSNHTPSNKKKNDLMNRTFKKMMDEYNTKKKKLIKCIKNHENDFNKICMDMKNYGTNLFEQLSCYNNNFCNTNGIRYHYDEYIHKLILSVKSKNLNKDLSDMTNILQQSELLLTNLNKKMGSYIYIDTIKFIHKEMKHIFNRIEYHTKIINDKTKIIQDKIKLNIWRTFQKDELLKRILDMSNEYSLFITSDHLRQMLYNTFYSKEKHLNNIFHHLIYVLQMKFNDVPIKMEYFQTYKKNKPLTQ
# T2: P. falciparum P113, biotinylated bait (P. falciparum, UniProt Q8ILP3 23-945, biotin (enzymatic monobiotinylation; site not stated))
# T2 construct: source: HEK293E, transient transfection, secreted; enzymatically monobiotinylated bait
# T2 sequence: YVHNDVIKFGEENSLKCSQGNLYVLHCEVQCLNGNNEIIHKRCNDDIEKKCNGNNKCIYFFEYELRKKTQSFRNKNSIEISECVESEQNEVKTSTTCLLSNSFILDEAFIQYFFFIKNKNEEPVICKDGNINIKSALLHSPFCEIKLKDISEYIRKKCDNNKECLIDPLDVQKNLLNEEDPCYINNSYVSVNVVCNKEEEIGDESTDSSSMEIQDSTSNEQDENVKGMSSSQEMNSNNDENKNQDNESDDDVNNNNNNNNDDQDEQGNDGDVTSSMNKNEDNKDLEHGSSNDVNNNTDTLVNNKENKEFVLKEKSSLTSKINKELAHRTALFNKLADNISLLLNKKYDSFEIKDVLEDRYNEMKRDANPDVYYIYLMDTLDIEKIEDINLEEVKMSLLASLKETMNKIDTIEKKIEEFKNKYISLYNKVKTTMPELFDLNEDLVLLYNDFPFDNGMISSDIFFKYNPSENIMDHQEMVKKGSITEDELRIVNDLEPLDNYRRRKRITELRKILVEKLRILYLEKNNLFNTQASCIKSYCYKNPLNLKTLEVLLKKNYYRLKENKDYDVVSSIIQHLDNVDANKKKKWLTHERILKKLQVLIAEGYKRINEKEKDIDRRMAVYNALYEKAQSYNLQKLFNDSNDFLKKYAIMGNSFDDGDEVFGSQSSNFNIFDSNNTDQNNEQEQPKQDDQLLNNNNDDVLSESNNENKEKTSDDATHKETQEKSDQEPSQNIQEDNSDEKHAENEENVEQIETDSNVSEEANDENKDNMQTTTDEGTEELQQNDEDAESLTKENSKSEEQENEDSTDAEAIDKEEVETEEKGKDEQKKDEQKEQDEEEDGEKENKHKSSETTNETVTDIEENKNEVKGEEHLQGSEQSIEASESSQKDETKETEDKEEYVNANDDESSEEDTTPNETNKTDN
# B1: human basigin, entire ectodomain (receptor)
# chain: EPGTVFTTVEDLGSKILLTCSLNDSATEVTGHRWLKGGVVLKEDALPGQKTEFKVDSDDQWGEYSCVFLPEPMGTANIQLHGPPRVKAVKSSEHINEGETAMLVCKSESVPPVTDWAWYKITDSEDKALMNGSESRFFVSSSQGRSELHIENLNMEADPGQYRCNGTSSKGSDQAIITLRVRSHLAAL
# modifications: enzymatically monobiotinylated
# notes: also called HsBSG; BSG; source: HEK293E, transient transfection, secreted, enzymatically monobiotinylated
# Assays:
# Test in all cases: SPR
# Details in all cases: both partners purified
# [1] = molecular target: T1, P. falciparum RH5 (reticulocyte-binding …)
# P. gaboni RH5 = P. gaboni RH5 (P. gaboni)
# P. reichenowi RH5 = P. reichenowi RH5 (P. reichenowi, UniProt B4X6H6 1-535)
# [2] = molecular target: B1
# [3] = molecular target: T3, gorilla basigin, entire ectodomain (gorilla, enzymatically monobiotinylated)
# T3 construct: also called gorilla BSG; source: HEK293E, transient transfection, secreted, enzymatically monobiotinylated
# [4] = molecular target: T2, P. falciparum P113, biotinylated bait
binder,measurement,setting,value
B1,Kd,[1],1500 ± 200 nM
"chimpanzee basigin, entire ectodomain (receptor, enzymatically monobiotinylated) ASGAAGTVFTTVEDLGSKILLTCYMNDSATEVTGHRWLKGGVVLEEDALPGQKTEFKVDSDDQWGEYSCVFLPEPMGTANIQLHGPPRVKAVKSSEHINEGETAVLVCKSESVPPVTDWAWYKITDSGDKALMNGSESRFFVSSLQGRSELHIENLNMEADPGQYRCNGNSSEGSDQAVITLRVRSHLA",Kd,P. gaboni RH5,2900 ± 100 nM
same,Kd,P. reichenowi RH5,4300 ± 500 nM
introgressed ancestral RH5 (reticulocyte-binding protein homologue 5) (ligand) FENAIKKTKNQENNLTLLPIKSTEEEKDDIKNGKDIKKEIDNDKENIKTNNAKDHSTYIKSYLNTNVNDGLKYLFIPSHNSFIKKYSVFNQINDGMLLNEKNDVKNNEDYKNVDYKNVNFLQYDFKELSNYNIANSIDILQEKEGHLDFVIIPHYTFLDYYKHLSYNSIYHKYSTHGKYIAVDAFIKKINERYDQVKSKCNDIKNDLIATIKKLEHPYDINNKNDDSYRYDISEEIDDKSEETDDETEEVEDSIQDTDSNHTPSNKKKNDLMNRTFKKMMDEYNTKKKKLIKCIKNHENDFNKICMDMKNYGTNLFEQLSCYNNNFCNTNGIRYHYDEYIHKLILSVKSKNLNKDLSDMTNILQQSELLLTNLNKKMGSYIYIDTIKFIHKEMKHIFNRIEYHTKIINDKTKIIQDKIKLNIWRTFQKDELLKRILDMSNEYSLFITSDHLRQMLYNTFYSKEKHLNNIFHHLIYVLQMKFNDVPIKMEYFQTYKKNKPLTQ,Kd,[2],2300 ± 100 nM
same,Kd,[3],3000 ± 300 nM
P. falciparum RH5 (reticulocyte-binding protein homologue 5) (ligand) FENAIKKTKNQENNLTLLPIKSTEEEKDDIKNGKDIKKEIDNDKENIKTNNAKDHSTYIKSYLNTNVNDGLKYLFIPSHNSFIKKYSVFNQINDGMLLNEKNDVKNNEDYKNVDYKNVNFLQYHFKELSNYNIANSIDILQEKEGHLDFVIIPHYTFLDYYKHLSYNSIYHKSSTYGKCIAVDAFIKKINETYDKVKSKCNDIKNDLIATIKKLEHPYDINNKNDDSYRYDISEEIDDKSEETDDETEEVEDSIQDTDSNHTPSNKKKNDLMNRTFKKMMDEYNTKKKKLIKCIKNHENDFNKICMDMKNYGTNLFEQLSCYNNNFCNTNGIRYHYDEYIHKLILSVKSKNLNKDLSDMTNILQQSELLLTNLNKKMGSYIYIDTIKFIHKEMKHIFNRIEYHTKIINDKTKIIQDKIKLNIWRTFQKDELLKRILDMSNEYSLFITSDHLRQMLYNTFYSKEKHLNNIFHHLIYVLQMKFNDVPIKMEYFQTYKKNKPLTQ,binding result,[4],binds

# — paper PMC6793842 (PLoS Biology, 2019)
